Experimental data as given in patent US6989144.

Assays:
[1] = molecular target: GPVI on baboon platelets (baboon); assay: flow cytometry, washed baboon platelets; negative control
[2] = molecular target: GPVI on baboon platelets (baboon); assay: flow cytometry, washed baboon platelets
[3] = molecular target: soluble human GPVI-Fc (extracellular domain of GPVI fused to Fc; hGPVI-human IgG1Fc) (human) (UniProt Q9HCN6); assay: 125I-convulxin binding to GPVI-Fc captured on 1P10.2, 10 µg/ml reagent; competitor ligand convulxin
Chain of soluble human GPVI-Fc (extracellular domain of GPVI fused to Fc; hGPVI-human IgG1Fc) (human) (Q9HCN6 other isoform, or with tags, fused parts or gaps): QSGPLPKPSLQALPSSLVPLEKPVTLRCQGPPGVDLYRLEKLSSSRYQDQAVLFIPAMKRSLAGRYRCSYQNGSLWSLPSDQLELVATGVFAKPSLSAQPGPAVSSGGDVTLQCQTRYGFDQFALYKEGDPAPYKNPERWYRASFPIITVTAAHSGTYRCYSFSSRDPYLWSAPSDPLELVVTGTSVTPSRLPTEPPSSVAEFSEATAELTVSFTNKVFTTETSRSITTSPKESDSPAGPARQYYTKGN

[4] = molecular target: collagen type I; assay: cell-based or functional assay

| Substance | Baboon fluorescence intensity [1] | Baboon platelets % positive [1] | other results |
| --- | --- | --- | --- |
| monoclonal antibody 7H14.1 (negative control) | 9 | 6.8% |  |
| mouse monoclonal antibody produced by hybridoma cell line 9012.2 |  |  | Baboon fluorescence intensity [2]: 18; Baboon platelets % positive [2]: 33.8%; % blocking of GPVI-Fc binding to convulxin [3]: > 25% |
| recombinant human soluble GPVI:Fc (rhusGPVI:Fc) (from UniProt Q9HCN6 21-269) (Fc fusion) |  |  | collagen-induced platelet aggregation and secretion [4]: 10 fold |
| monoclonal antibody 7120.2 (negative control) | 10 | 9% |  |
